Test system: Arabidopsis
Assay: dgt-28, dgt-32, dgt-33, dgt-3, dgt-7 transformed Arabidopsis (T1, T2, T3) response to postemergence glyphosate, % visual injury
Type: in vivo, Arabidopsis thaliana
Settings: 14 days after application
Excerpt: Transgenic T1 Arabidopsis plants containing the dgt-28 transgene were sprayed with differing rates of glyphosate. Elevated rates were applied in this study to determine the relative levels of resistance (105, 420, 1,680 or 3,360 g ae/ha). A typical 1× usage rate of glyphosate that will control non-transformed Arabidopsis is 420 g ae/ha. […] The T1 Arabidopsis plants that were used in this study were variable copy number for the dgt-28 transgene. The low copy dgt-28 T1 Arabidopsis plants were self-pollinated and used to produce T2 plants.
Results of Glyphosate Selection of Transformed dgt-28 Arabidopsis Plants. The Arabidopsis T1 transformants were first selected from the background of untransformed seed using a glufosinate selection scheme. Three flats or 30,000 seed were analyzed for each T1 construct. The T1 plants selected above were molecularly characterized and representative plants with variable copy number were subsequently transplanted to individual pots and sprayed with various rates of commercial glyphosate as previously described. The response of these plants is presented in terms of % visual injury 2 weeks after treatment (WAT). […] An arithmetic mean and standard deviation is presented for each construct used for Arabidopsis transformation. The range in individual response is also indicated in the last column for each rate and transformation. Wild-type, non-transformed Arabidopsis (c.v. Columbia) served as a glyphosate sensitive control.
T2Arabidopsis Data. The second generation plants (T2) of selected T1 Arabidopsis events which contained low copy numbers of the dgt-28 transgene were further characterized for glyphosate tolerance. Glyphosate was applied as described previously. The response of the plants is presented in terms of % visual injury 2 weeks after treatment (WAT). […] An arithmetic mean and standard deviation are presented for each construct used for Arabidopsis transformation. The range in individual response is also indicated in the last column for each rate and transformation. Wild-type, non-transformed Arabidopsis (cv. Columbia) served as a glyphosate sensitive control. In the T2 generation hemizygous and homozygous plants were available for testing for each event and therefore were included for each rate of glyphosate tested. Hemizygous plants contain two different alleles at a locus as compared to homozygous plants which contain the same two alleles at a locus. Variability of response to glyphosate is expected in the T2 generation as a result of the difference in gene dosage for hemizygous as compared to homozygous plants. The variability in response to glyphosate is reflected in the standard deviation and range of response.
T3 Arabidopsis Data. The third generation plants (T3) of selected T2 Arabidopsis events which contained low copy numbers of the dgt-28 transgene were further characterized for glyphosate tolerance. […] Glyphosate was applied as described previously. The response of the plants is presented in terms of % visual injury 2 weeks after treatment (WAT). […] An arithmetic mean and standard deviation are presented for each construct used for Arabidopsis transformation. The range in individual response is also indicated in the last column for each rate and transformation. Wild-type, non-transformed Arabidopsis (cv. Columbia) served as a glyphosate-sensitive control.

[1] = Table 8, T1 Arabidopsis, 105 g ae/ha glyphosate
[2] = Table 8, T1 Arabidopsis, 420 g ae/ha glyphosate
[3] = Table 8, T1 Arabidopsis, 1680 g ae/ha glyphosate
[4] = Table 8, T1 Arabidopsis, 3360 g ae/ha glyphosate
[5] = Table 10, T1 Arabidopsis, 1,680 g ae/ha glyphosate

B1: pDAB107527: TraP4 v2 - dgt-28 v5: binary construct TraP4 v2:dgt-28 v5 (SEQ ID NO:32) (nucleic acid)
DNA: ATGCTTGCTAGACAAGGTGGAAGTCTGAGAGCTTCTCAATGCAACGCTGGACTTGCTAGAAGAGTTGAAGTTGGTGCTCTTGTTGTTCCTAGACCTATCTCTGTTAACGACGTTGTTCCTCACGTTTACTCTGCTCCACTTTCTGTTGCTAGAAGGTCTTGCTCTAAGTCCTCCATTAGGTCCACTAGAAGGCTTCAAACTACTGTGTGCTCTGCTGCAAGAGGGATGCCAGCCTTGTCTTTACCTGGATCAAAGAGTATCACAGCTAGGGCACTCTTTCTTGCTGCTGCTGCTGATGGGGTTACTACTTTGGTGAGGCCATTGAGAAGTGACGACACAGAAGGATTCGCTGAGGGGTTAGTTCGTTTAGGCTATCGTGTAGGGAGGACACCCGATACTTGGCAAGTCGATGGCAGACCACAAGGACCAGCAGTGGCTGAGGCTGACGTCTACTGTAGAGACGGAGCAACCACCGCTAGATTCTTGCCAACCTTAGCAGCTGCTGGTCACGGAACATACAGATTTGATGCTTCACCACAGATGAGGAGACGTCCTCTTTTGCCCTTAAGCAGAGCCTTGAGGGATTTGGGTGTCGATCTTAGACACGAAGAAGCTGAAGGTCATCACCCTCTGACTGTCCGTGCTGCTGGGGTTGAAGGAGGAGAGGTTACTTTGGATGCTGGTCAGTCAAGTCAGTATCTCACTGCCTTGTTGCTCCTTGGTCCCCTTACAAGACAAGGACTGAGGATAAGGGTTACTGATTTGGTGTCAGCACCATACGTGGAGATTACGCTTGCAATGATGAGGGCTTTCGGAGTTGAAGTGGCAAGGGAGGGAGATGTGTTCGTTGTTCCACCTGGTGGATATCGTGCAACTACGTATGCTATAGAACCCGACGCAAGTACTGCTTCTTACTTCTTCGCAGCTGCTGCTTTGACTCCTGGAGCTGAAGTGACTGTACCTGGGTTAGGCACGGGAGCACTTCAAGGAGATTTGGGATTTGTAGATGTCTTAAGGAGAATGGGAGCCGAGGTGTCCGTAGGAGCTGATGCAACCACTGTTAGAGGAACTGGTGAATTGCGTGGCCTTACAGCCAACATGAGAGACATAAGTGATACGATGCCGACCCTCGCTGCAATAGCACCCTTTGCTAGTGCTCCAGTTAGAATCGAGGATGTTGCCAACACTCGTGTCAAAGAATGTGACAGACTTGAGGCTTGTGCAGAGAACCTTAGGAGGTTGGGAGTAAGGGTTGCAACGGGTCCGGACTGGATTGAGATACACCCTGGTCCAGCTACTGGTGCTCAAGTCACAAGCTATGGTGATCACAGAATTGTGATGTCATTTGCAGTGACTGGACTTCGTGTGCCTGGGATCAGCTTCGACGACCCTGGCTGTGTTCGTAAGACTTTTCCTGGGTTTCACGAGGCTTTCGCAGAATTGAGGCGTGGCATTGGGAGCTGA
modifications: In-frame fusion of dgt-28 v5 and TraP4 v2
B1 was tested, and the “% Injury Ave” value [1] was 3.8%, the “% Injury Range (%)” value [1] was 0-15% and the “No. plants with 20-40% injury” value [1] was 0. For the same molecule, the “No. plants with <20% injury” value [1] was 4, the “No. plants with >40% injury” value [1] was 0 and the “% Injury Ave” value [2] was 28.8%. For the same molecule, the “% Injury Range (%)” value [2] was 0-65%, the “No. plants with 20-40% injury” value [2] was 1 and the “No. plants with <20% injury” value [2] was 2. For the same molecule, the “No. plants with >40% injury” value [2] was 1, the “% Injury Ave” value [3] was 55.0% and the “% Injury Range (%)” value [3] was 35-85%. For the same molecule, the “No. plants with 20-40% injury” value [3] was 2, the “No. plants with <20% injury” value [3] was 0 and the “No. plants with >40% injury” value [3] was 2. For the same molecule, the “% Injury Ave” value [4] was 43.8%, the “% Injury Range (%)” value [4] was 30-70% and the “No. plants with 20-40% injury” value [4] was 2. The “No. plants with <20% injury” value [4] was 0, the “No. plants with >40% injury” value [4] was 2 and the “% Injury Ave” value [5] was 55.0%. The “% Injury Range (%)” value [5] was 35-85%, the “No. plants with 20-40% injury” value [5] was 2 and the “No. plants with <20% injury” value [5] was 0. The “No. plants with >40% injury” value [5] was 2.

Reference: patent US9493781B2, “Synthetic brassica-derived chloroplast transit peptides” (DOW AGROSCIENCES LLC, priority 2012, dated 2016)
